Measured values from patent US20110288009A1, “LEPTIN AND LEPTIN ANALOG CONJUGATES AND USES THEREOF” (Angiochem Inc., priority 2008, published 2011).

How the values were obtained:
[1] = in situ brain perfusion; threshold definition of efficient transport; cited from earlier work
[2] = tested on: ob/ob mice; assay: body weight of ob/ob mice treated with recombinant leptin; type: in vivo; conditions: 0.1 mg/mouse or 0.25 mg/mouse daily, FIG. 21
Description: As a control, we tested the ability of recombinant leptin to reduce body weight in ob/ob mice using either 0.1 mg/mouse or 0.25 mg/mouse daily.

[3] = in situ perfusion assay in lean and diet-induced obese (DIO) mice; type: in vivo; conditions: DIO mice compared with lean mice; FIG. 4A
Source text: Blood Flow Metab. 20(2):381-386.

Row | Molecule | transport across the BBB relative to that of Angiopep-1 (250 nM) [1] | body weight [2] | transport across the BBB in DIO mice versus lean mice [3]
1 | T F F Y G G S R G K R N N F R T E E Y (TFFYGGSRGKRNNFRTEEY) [Angiopep-6] | 38.5% | – | –
2 | leptin: recombinant leptin used as control and comparator in Example 5 (protein, UniProt P41160 22-167, looked up) Leptin: VPIQKVQDDTKTLIKTIVTRINDISHTQSVSAKQRVTGLDFIPGLHPILSLSKMDQTLAVYQQVLTSLPSQNVLQIANDLENLRDLLHLLAFSKSCSLPQTSGLQKPESLDGVLEASLYSTEVVALSRLQGSLQDILQQLDVSPEC | – | reduce body weight in these mice in a dose-dependent manner | reduced as compared to in lean mice
